The supplement of paper PMC9170038

Tested on: MS2 coat protein
Assay: apparent KD of MS2 coat protein; designed switch direction (-1 OFF switch, 1 ON switch): -1; higher = weaker reporter binding
In short: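 The reported apparent KD is a per-design median over clusters, from curve fits of normalised cluster fluorescence. Protein titrations used SNAP-549-labelled MS2 coat protein, doubled from 0.7 or 1.5 nM to 3 µM, in Tris-HCl pH 7.5 buffer with KCl, MgCl2, BSA, DTT, tRNA and Tween-20, with no input, 200 uM small-molecule ligand, or an oligonucleotide input. The RNA switches were transcribed on Illumina chips by stalled E. coli RNA polymerase.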

[1] = Eterna round: R95, input ligand: FMN 200 uM
[2] = Eterna round: R95, input ligand: microRNA oligo, concentration not stated
[3] = Eterna round: R95, input ligand: none

Row | Sequence | apparent KD of MS2 coat protein (input ligand: FMN 200 uM) [nM] | apparent KD of MS2 coat protein (input ligand: none) [nM] | apparent KD of MS2 coat protein [1] [nM] | apparent KD of MS2 coat protein [2] [nM] | apparent KD of MS2 coat protein [3] [nM]
1 | GGCAUGUAAGGAUAUGCCACGCAGGCCUUUGGCCUGCGUAAGCAGAAGGUACAUGAGGAUCACCCAUGUGAUAA [jl-ex4-4.57 ViennaUCT mod] (Eterna round: R97, puzzle: Exclusion 4) | 129 | 727 |  |  | 
2 | GGCAUGUAAGGAUAUGUGAAGGGAAGGAGAGGGAGAGGGAAGCAGAAGGUACAUGAGGAUCACCCAUGUAAGGG [AK-MS2ROC-r4-exclusion4-5.1] (Eterna round: R97, puzzle: Exclusion 4) | 203 | 108 |  |  | 
3 | GGCCCAUGAGGAUAUCAGUCUGGAUCAGACAAGAUCCUGACUGAGAAGGCACAUGAGGAUCACCCAUGUAGGCC [Mat - Exclusion 4 - Eli Mod - D53] (Eterna round: R97, puzzle: Exclusion 4) | 18.3 | 18.7 |  |  | 
4 | GGCCCUAAGGUCAGAUCCACAAGCUUUUUGCUCGUUUUAACAUGAGGAUCACCCAUGUCUAGUGGAUCUGAUCCUCA [Sensor v3, turn-off variant 2 (MOD of Indiso v.3)] (puzzle: Sensor v3, turn-off variant 2) |  |  | 16.9 | 12.1 | 20.8
5 | GGCCCUAAGGUCAGAUUCACAAGCUUUUUGCUCGUUUUAACAUGAGGAUCACCCAUGUCUAGUGGAUUUGAUCCUUU [Sensor v3, turn-off variant 2 (MOD of Indiso v.6)] (puzzle: Sensor v3, turn-off variant 2) |  |  | 28.6 | 25.4 | 34.2
6 | GGCCUGUGAGGAUAUUAGUAGUAGAUAAAAUAAACUAUUACUGAGAAGGCACAUGAGGAUCACCCAUGUUGGCC [Eli x4 4.05] (Eterna round: R97, puzzle: Exclusion 4) | 20.3 | 16.4 |  |  | 
7 | GGCUAGUGAGGAUAUACGUGCACUCCUCAGUCGCCAGUCGGACAUGAGGAUCACCCAUGUAGAAGGUAUCGGCA [Qusoceus] (puzzle: Exclusion 2) |  |  |  | 24 | 
8 | GGGAACGUAGGAUAUACAUGAGGAUCACCCAUGUGAGGAAGGAGUAGGAAGCGUGGAAGUAGAAGGACGGAGAG [JR_Exclu3_Sub074] (puzzle: Exclusion 3) |  |  | 40.6 | 31.5 | 46.4
9 | GGGCCCGGAGGAUAUACAAUUUUGGGCCGAAAGGCCCGGGUACAUGAGGAUCACCCAUGUAGAAGGCCGGGCCC [-41.7, -39.1 kcal A 24%, 5a,0] (Eterna round: R97, puzzle: Exclusion 2) | 134 | 32.4 |  |  | 
10 | GGGCCCGGUGUGAGGAUAUGAGUUCGGAAAUGAGCUUAGAAGGCACAUGAGGAUCACCCAUGUAAGCCGGGCCC [-34.2, -32.1 kcal, A 26%, 1-0] (Eterna round: R97, puzzle: Brourd's mod of Exclusion 4) | 14.3 | 35.6 |  |  | 
11 | GGGCUCGGAGGAUAUACAUGAGGAUCACCCAUGUAGGGCCCGGGUAUUCCCGGGCCCUGUAGAAGGCUGGGUCU [-39, -36.1 kcal, A 19%, 0-7] (Eterna round: R97, puzzle: Exclusion 3) | 19.7 | 16.5 |  |  | 
12 | GGGUGACAUGAGGAUCACCCAUGUCAGGAUAUGCUUCGGCUUCGGAAAUGAAGUUGAAGUAGAAGGGACUGCCC [-30.1, -29.1 kcal, A 27% sequence 3 bis] (Eterna round: R97, puzzle: Exclusion 1) | 84.4 | 42.2 |  |  | 
13 | GGGUGACAUGAGGAUCACCCAUGUCAGGAUAUGGGCCCGGGCCCGAAAGGGCCCGGGUUUAGAAGGGACUGCCC [-44.4, -43.4 kcal, 22%A (-3 GC series)] (Eterna round: R97, puzzle: Exclusion 1) | 59.3 | 42.9 |  |  | 
14 | GGGUGCAGGCUAAGAUCCUACAUGAGGAUCACCCAUGUGGUCCGGUGACGUGAGUCACCGGACUUAGCUCGUCUUGU [salish99_S_TOV1_R5_006] (Eterna round: R97, puzzle: Sensor, turn-off variant 1) | 133 | 142 |  |  | 
15 | GGGUGCAGGCUGGGAUCCUACAUGAGGAUCACCCAUGUGGUCCGGUGACGUGAGUCACCGGACUUAGCUCGUCUUGU [salish99_S_TOV1_R5_008] (Eterna round: R97, puzzle: Sensor, turn-off variant 1) | 569 | 865 |  |  | 
16 | GGUACUAACACGAGAGUGUUAGUACUAUAAGCUUGUGUUACAUGAGGAUCACCCAUGUCCUCAUAAGCUCGUCUUGU [Mat - Sensor v3 - Turn-off var 2 - D88] (puzzle: Sensor v3, turn-off variant 2) |  |  | 48.2 | 54.8 | 46.8
